This assay addresses CD66c receptor (human (patients' ileal enterocytes)) (UniProt P40199). Kind of assay: cell-based or functional assay.
UniProt P40199, sequence (P40199 35-320): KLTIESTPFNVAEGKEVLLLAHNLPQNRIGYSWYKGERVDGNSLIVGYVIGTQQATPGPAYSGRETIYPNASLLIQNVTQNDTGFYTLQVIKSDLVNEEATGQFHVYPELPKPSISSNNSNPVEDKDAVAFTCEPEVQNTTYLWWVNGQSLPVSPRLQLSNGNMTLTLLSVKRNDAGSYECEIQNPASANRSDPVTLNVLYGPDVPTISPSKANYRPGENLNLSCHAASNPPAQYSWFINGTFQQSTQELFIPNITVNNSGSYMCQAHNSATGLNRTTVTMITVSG

As to “type 1 pili (adhesin FimH) of the E. coli AIEC strain LF82”, the Adhesion to the enterocytes, no antibody (adhesion index), patient F (bacteria adhering per enterocyte) came out at 1.45; the Adhesion to the enterocytes, no antibody (adhesion index), patient G (bacteria adhering per enterocyte) is 1.15; the Adhesion to the enterocytes, no antibody (adhesion index), patient H (bacteria adhering per enterocyte) turned out to be 1.02; the Adhesion to the enterocytes, no antibody (adhesion index), patient I (bacteria adhering per enterocyte) is 1.28.
